{"source": "patent US20170247459A1", "about": "“COMBINATION THERAPY OF ANTIBODIES AGAINST HUMAN CSF-1R AND USES THEREOF” (HOFFMANN-LA ROCHE INC., priority 2012, published 2017)", "assay_in_all_cases": "cell-based or functional assay", "key": {"[1]": {"molecular_target": "human mutant CSF-1R L301S Y969F, full-length, on NIH 3T3 cells (human) (UniProt P07333)"}, "[2]": {"molecular_target": "human wildtype CSF-1R (wt CSF-1R), full-length, on cells (human) (UniProt P07333)"}, "[3]": {"molecular_target": "CSF-1R on cynomolgous monocytes (cynomolgous)"}}, "data": [{"substance": "goat polyclonal anti-CSF-1R antibody ab10676 (abcam)", "values": [{"measurement": "Mutant CSF-1R IC30 (cell viability, 3D spheroids, CellTiterGlo)", "setting": "[1]", "value": "> 20", "unit": "µg/mL"}, {"measurement": "wtCSF-1R IC30 (cell viability, 3D spheroids, CellTiterGlo)", "setting": "[2]", "value": 14.2, "unit": "µg/mL"}]}, {"substance": "Anti CSF-1R SC 2-4A5 (Santa Cruz Biotechnology, US) (antibody)", "values": [{"measurement": "% inhibition (of survival) = (100%-% survival), cynomolgous monocytes at 5 µg/ml antibody", "setting": "[3]", "value": 69, "unit": "%"}, {"measurement": "% survival of cynomolgous monocytes at 5 µg/ml antibody (CellTiterGlo)", "setting": "[3]", "value": 31, "unit": "%"}, {"measurement": "Mutant CSF-1R IC30 (cell viability, 3D spheroids, CellTiterGlo)", "setting": "[1]", "value": 2.56, "unit": "µg/mL"}, {"measurement": "Mutant CSF-1R IC50 (cell viability, 3D spheroids, CellTiterGlo)", "setting": "[1]", "value": 10, "unit": "µg/mL"}, {"measurement": "wtCSF-1R IC30 (cell viability, 3D spheroids, CellTiterGlo)", "setting": "[2]", "value": 16.6, "unit": "µg/mL"}, {"measurement": "wtCSF-1R IC50 (cell viability, 3D spheroids, CellTiterGlo)", "setting": "[2]", "value": 10, "unit": "µg/mL"}]}]}
